Reference: patent US20170173105A1, “AUTOASSEMBLING PEPTIDES FOR THE TREATMENT OF PULMONARY LEAKAGE” (3-D MATRIX, LTD., priority 2014, published 2017)

What was measured:
[1] = Rheological properties of peptide solutions and hydrogels after salt ionic strength adjustment; assay type: physicochemical; details: for appearance of peptide solutions with salt and pH adjustment: 0.9% NaCl (ionic strength: 0.15 M) at pH 3.4 adjusted with NaOH; for rheological property of hydrogels after DMEM treatment at various ionic strengths: 1% hydrogels, DMEM treatment for 10 min; for rheological property of 1% solutions at various salt ionic strengths: 1% solution, storage modulus at 1 rad/sec; for rheological property of solutions after ionic strength adjustment with NaCl: NaCl to 0.7 M (PuraMatrix®), 0.2 M (KLD12) or 0.02 M (IEIK13), 1% solutions
Procedure: Based on the visual observation of the effect of salt ionic strength on the properties of the peptide solutions, the effect on the rheological properties of the peptide solutions after adjusting their ionic strength level with NaCl to 0.7 M (PuraMatrix®), 0.2 M (KLD12) or 0.02 M (IEIK13), which is closely below the critical ionic strength at which each peptide becomes cloudy, was evaluated. If the ionic strength levels with NaCl of peptide solutions are higher than 0.9 M (PuraMatrix®), 0.3 M (KLD12) or 0.03 M (IEIK13), the peptide solution begin phase separation becoming cloudy and weak. The rheological property of PuraMatrix®, KLD12 and IEIK13 solutions was higher after adjusting their ionic strength level with NaCl to 0.7 M (PuraMatrix®), 0.2 M (KLD12) or 0.02 M (IEIK13), The results are shown in FIG. 10 for KLD12 1%, FIG. 11 for IEIK13 1%, and FIG. 12 for PuraMatrix® 1%, respectively. Frequency sweep tests were performed from 1 rad/s to 10 rad/s at 1 Pa.
Based on the results of the effect on the rheological properties of the peptide solutions after adjusting their ionic strength level with NaCl to 0.7 M (PuraMatrix®), 0.2 M (KLD12) or 0.02 M (IEIK13), the effect on the rheological properties of the peptide solution at various salt ionic strengths was evaluated. […] The results are shown in FIG. 13 for PuraMatrix® 1% solution and in FIG. 14 for IEIK13 1% solution. Frequency sweep tests were performed from 1 rad/sec to 10 rad/sec at 1 Pa and the storage modulus at 1 rad/sec was selected for data.
Based on the results of the effect on the rheological properties of the peptide solutions after adjusting their ionic strength levels, the effect on the rheological properties of the peptide hydrogels after DMEM treatment for 10 min was evaluated. […] The results are shown in FIG. 15 for PuraMatrix® 1% hydrogels and in FIG. 16 for IEIK13 1% hydrogels, both after DMEM treatment for 10 min Frequency sweep tests were performed from 1 rad/sec to 10 rad/sec at 1 Pa and the storage modulus at 1 rad/sec was selected for data.
Based on the results of the effect on the rheological properties of the peptide solutions and hydrogels after adjusting their ionic strength levels with NaCl, the effect of various salts (KCl, MgCl2, and CaCl2) was also evaluated. The rheological property of PuraMatrix® solutions increases with ionic strength adjustment at 0.15 M of all the salts. Increases of the rheological property of PuraMatrix® solutions with various salts were not predominantly different. However, increases of the rheological property of PuraMatrix® solutions may vary depending on the salting out constant, K of each salt. Constant K is a constant in Cohen's equation: log S=B−KI, where S is solubility, B is idealized solubility, K is salting out constant, and I is ionic strength. With a higher value of constant K and ionic strength of salts, solubility of the peptide may decrease resulting in strong peptide self-assembly with increased hydrophobic effect and higher rheological properties of the peptide solution. The constant K of NaCl may be higher than the other salts. […] The results are shown in FIG. 17 for PuraMatrix® 1% solution before DMEM treatment, and in FIG. 18 for PuraMatrix® 1% hydrogels after DMEM treatment for 10 min.
In accordance with one or more embodiments, IEIK13, KLD12, and PuraMatrix® may be dissolved both in salt buffer such as NaCl and at an elevated pH level adjusted with alkali salt buffer such as NaOH to keep their salt ionic strength under their critical salt points as well as their pH level to about 2.5˜4.0, so that they may have stiffer properties. With respect to PuraMatrix®, […] and IEIK13, the peptide solutions are still clear with 0.9% NaCl (ionic strength: 0.15 M) at pH 3.4 adjusted with NaOH. […] The effect of salt ionic strength and pH adjustment on the rheological properties of PuraMatrix® 2.5% solution are shown in FIG. 20. […]

[2] = Gelation of peptide solutions on saline buffer treatment (time sweep); assay type: physicochemical; details: saline buffer (0.15 M of NaCl); IEIK13 1.5%, KLD12 1.5%, PuraMatrix 2.5%
Procedure: The effect of salt ionic strength level surrounding peptide solution on the properties of peptide solutions was evaluated to identify the possibility of peptide gelation when the peptide solution is placed into the environment where salt ionic strength level is high. […] Without pH effect, the effect of saline treatment on gelation of peptide solutions were evaluated. […] This is because IEIK13 is much more sensitive to salt ionic strength levels. Fast gelation of IEIK13 at the salt ionic strength level similar to body fluid isotonic salt level may generally improve its function and gelation speed for various clinical applications. The results are shown in FIG. 19 for IEIK13, KLD12 and PuraMatrix® solutions. Time sweep tests were performed at 1 rad/sec and at 1 Pa with 20 mm plates and 500 μm gap distance. […]

Substance | rheological property of solutions with NaCl compared with KCl and CaCl2 ([1]; 0.15 M ionic strength, 1%) | appearance of peptide solutions with salt and pH adjustment [1] | rheological property of hydrogels after DMEM treatment at various ionic strengths [1] | rheological property of 1% solutions at various salt ionic strengths [1] | rheological property with salt and pH adjustment ([1]; 2.5% solution, 0.9% NaCl (0.15 M) at pH 3.4 vs control and only NaCl 0.9%) | ionic strength level with NaCl at which the peptide solution begins phase separation becoming cloudy and weak [1] | rheological property of solutions after ionic strength adjustment with NaCl [1] | gelation with DMEM treatment ([1]; above 0.9 M of NaCl ionic strength) | rheological property of solutions with various salts ([1]; ionic strength adjustment at 0.15 M of all the salts (NaCl, KCl, MgCl2, CaCl2), 1%) | gelation after saline buffer treatment [2]
Arg-Ala-Asp-Ala-Arg-Ala-Asp-Ala-Arg-Ala-Asp-Ala-Arg-Ala-Asp-Ala [PuraMatrix ®] | slightly higher | still clear | increased with ionic strength adjustment up to 0.7 M, while decreases above 0.7 M | increases with ionic strength adjustment up to 0.7 M, while decreases above 0.7 M | stiffer | higher than 0.9 M | higher | no gelation | increases | no or negligible gelation
Lys-Leu-Asp-Leu-Lys-Leu-Asp-Leu-Lys-Leu-Asp-Leu (Ac-KLDLKLDLKLDL-NH2) [KLD12] | – | still clear | – | – | – | > 0.3 M | higher | – | – | no or negligible gelation
Ile-Glu-Ile-Lys-Ile-Glu-Ile-Lys-Ile-Glu-Ile-Lys-Ile [IEIK13] | – | still clear | did not significantly change with ionic strength adjustment up to 0.025 M, while decreases above 0.03 M | increases with ionic strength adjustment up to 0.03 M, while decreases above 0.03 M | – | > 0.03 M | higher | – | – | fast gelation
